The values that follow come from publication PMC13529201.

The assay has as its target His-tagged Pasteurella lipoprotein E (PlpE) of P. multocida (Pasteurella multocida). The assay is described as follows: BLI. On the technique in general: BLI is a label-free optical method that tracks binding on a fibre tip over time.

B1: ABCF2 used as analyte in bio-layer interferometry (natural protein)
chain: MPSDLAKKKAAKKKEAAKARQRPRKGHEENGDVVTEPQVAEKNEANGRETTEVDLLTKELEDFEMKKAAARAVTGVLASHPNSTDVHIINLSLTFHGQELLSDTKLELNSGRRYGLIGLNGIGKSMLLSAIGKREVPIPEHIDIYHLTREMPPSDKTPLHCVMEVDTERAMLEKEAERLAHEDAECEKLMELYERLEELDADKAEMRASRILHGLGFTPAMQRKKLKDFSGGWRMRVALARALFIRPFMLLLDEPTNHLDLDACVWLEEELKTFKRILVLVSHSQDFLNGVCTNIIHMHNKKLKYYTGNYDQYVKTRLELEENQMKRFHWEQDQIAHMKNYIARFGHGSAKLARQAQSKEKTLQKMMASGLTERVVSDKTLSFYFPPCGKIPPPVIMVQNVSFKYTKDGPCIYNNLEFGIDLDTRVALVGPNGAGKSTLLKLLTGELLPTDGMIRKHSHVKIGRYHQHLQEQLDLDLSPLEYMMKCYPEIKEKEEMRKIIGRYGLTGKQQVSPIRNLSDGQKCRVCLAWLAWQNPHMLFLDEPTNHLDIETIDALADAINEFEGGMMLVSHDFRLIQQVAQEIWVCEKQTITKWPGDILAYKEHLKSKLVDEEPQLTKRTHNV
Regarding B1, the Kd – broadly, the constant that tells how readily two partners part at equilibrium – was found to be 970 nM.
